Experimental findings from paper PMC12359043, “Chemical crosslinking extends and complements UV crosslinking in analysis of RNA/DNA nucleic acid–protein interaction sites by mass spectrometry” are described below.

In the data set the target is NELF complex WT (NELF-A/B/C-D/E) (human, UniProt Q9H3P2;Q8WX92;Q8IXH7;P18615 1-528;49-628;1-590;1-380). As to the kind of experiment: fluorescence anisotropy; NELF-TAR complex: 20 mM HEPES/NaOH pH 7.4, 150 mM NaCl, 10% glycerol, 1 mM DTT, mixed 30 min at 4 C; anisotropy conditions only by reference [29]; Hsh49-Cus1-U2 reconstituted 30 min on ice; Dnmt2 dialysed in 50 mM HEPES pH 7.5, 150 mM NaCl, 2 mM DTT. The settings on record: protein: recombinant; copies: 1;1;1;1; hairpin. On the technique in general: In fluorescence polarisation assays a small probe gives low polarisation when free and higher when bound to something large.
Sequence of NELF complex WT (NELF-A/B/C-D/E) (Q9H3P2 whole entry, chain 1 of 4): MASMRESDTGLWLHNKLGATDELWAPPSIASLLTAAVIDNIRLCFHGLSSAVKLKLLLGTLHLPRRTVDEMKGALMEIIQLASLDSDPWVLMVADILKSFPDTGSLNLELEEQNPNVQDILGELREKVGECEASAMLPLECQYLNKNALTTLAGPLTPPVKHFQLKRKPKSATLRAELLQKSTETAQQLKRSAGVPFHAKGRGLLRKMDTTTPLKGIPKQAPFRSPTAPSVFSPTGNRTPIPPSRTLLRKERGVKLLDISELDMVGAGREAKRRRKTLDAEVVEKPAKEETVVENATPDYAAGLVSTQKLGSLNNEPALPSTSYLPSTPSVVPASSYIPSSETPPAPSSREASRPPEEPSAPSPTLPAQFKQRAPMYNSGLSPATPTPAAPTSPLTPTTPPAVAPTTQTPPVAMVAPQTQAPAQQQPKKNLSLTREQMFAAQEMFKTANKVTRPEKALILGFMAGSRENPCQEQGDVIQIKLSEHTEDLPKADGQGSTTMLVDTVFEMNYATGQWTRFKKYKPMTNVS
Sequence of NELF complex WT (NELF-A/B/C-D/E) (Q8WX92 whole entry, chain 2 of 4): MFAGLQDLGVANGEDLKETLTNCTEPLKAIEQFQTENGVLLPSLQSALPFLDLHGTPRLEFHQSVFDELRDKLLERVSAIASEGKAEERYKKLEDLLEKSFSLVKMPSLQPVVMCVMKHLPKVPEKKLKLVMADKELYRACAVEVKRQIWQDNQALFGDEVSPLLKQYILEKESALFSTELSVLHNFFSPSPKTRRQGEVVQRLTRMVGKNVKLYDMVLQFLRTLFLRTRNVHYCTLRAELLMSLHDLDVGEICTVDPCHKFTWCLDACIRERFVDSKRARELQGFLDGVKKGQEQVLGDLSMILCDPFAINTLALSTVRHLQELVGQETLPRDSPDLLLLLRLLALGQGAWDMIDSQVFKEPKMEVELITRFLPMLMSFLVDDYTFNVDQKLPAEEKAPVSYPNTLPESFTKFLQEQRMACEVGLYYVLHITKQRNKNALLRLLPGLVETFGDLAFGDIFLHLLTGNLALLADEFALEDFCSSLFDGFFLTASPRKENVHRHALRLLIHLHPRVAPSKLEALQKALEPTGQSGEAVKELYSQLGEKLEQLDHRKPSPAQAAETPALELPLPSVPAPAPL
Sequence of NELF complex WT (NELF-A/B/C-D/E) (Q8IXH7 whole entry, chain 3 of 4): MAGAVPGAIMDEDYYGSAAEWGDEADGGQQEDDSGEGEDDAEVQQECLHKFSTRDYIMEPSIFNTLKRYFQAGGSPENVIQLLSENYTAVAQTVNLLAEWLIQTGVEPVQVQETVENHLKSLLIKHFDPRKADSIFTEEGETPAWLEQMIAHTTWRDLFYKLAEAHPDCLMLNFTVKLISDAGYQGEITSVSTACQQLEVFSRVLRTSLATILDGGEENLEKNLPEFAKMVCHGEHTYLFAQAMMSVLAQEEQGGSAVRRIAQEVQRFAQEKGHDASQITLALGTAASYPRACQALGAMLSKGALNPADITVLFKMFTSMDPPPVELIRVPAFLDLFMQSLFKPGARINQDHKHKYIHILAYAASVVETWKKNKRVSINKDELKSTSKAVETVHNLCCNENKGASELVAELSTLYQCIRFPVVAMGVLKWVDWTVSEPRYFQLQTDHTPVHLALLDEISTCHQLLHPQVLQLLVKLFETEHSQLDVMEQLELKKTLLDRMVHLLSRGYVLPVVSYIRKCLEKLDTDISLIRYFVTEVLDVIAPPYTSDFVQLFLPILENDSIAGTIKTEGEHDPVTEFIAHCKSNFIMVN
Sequence of NELF complex WT (NELF-A/B/C-D/E) (P18615 whole entry, chain 4 of 4): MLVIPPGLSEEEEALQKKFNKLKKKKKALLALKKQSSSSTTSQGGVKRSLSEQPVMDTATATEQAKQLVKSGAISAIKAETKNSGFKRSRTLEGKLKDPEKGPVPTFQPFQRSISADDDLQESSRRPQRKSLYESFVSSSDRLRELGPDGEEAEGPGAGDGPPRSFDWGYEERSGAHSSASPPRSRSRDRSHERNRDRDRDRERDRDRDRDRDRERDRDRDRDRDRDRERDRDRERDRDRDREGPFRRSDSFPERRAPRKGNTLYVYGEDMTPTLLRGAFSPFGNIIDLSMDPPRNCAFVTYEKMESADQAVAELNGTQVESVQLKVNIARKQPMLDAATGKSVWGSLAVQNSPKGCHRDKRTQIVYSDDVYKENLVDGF

Regarding CCAGAUCUGAGCCUGGGAGCUCUCUGG (structured_RNA) [HIV-1 TAR stem-loop RNA], the binding result is listed as “binds”.
